In paper PMC8699718, “A structurally conserved site in AUP1 binds the E2 enzyme UBE2G2 and is essential for ER-associated degradation” (PLoS Biology, 2021):

Experiments:
UBE2D2/UBCH5B = test: GST pulldown of in vitro translated 35S-UBE2D2; format: binding; details: GST-AUP1 aa 292 to 410, overnight 4°C, pH 7.4
Protocol: (§1) Fig 3 The AUP1–UBE2G2 interaction is required for ERAD. (A) Equimolar amounts of GST-AUP1 (aa 292 to 410) or GST were immobilized on glutathione beads and binding to the indicated in vitro translated ^35S-labeled E2s was assessed. Left panel is 5% of input used for binding. E2s are referred to by their unique alpha-numeric designation (e.g., UBE2G1 and UBE2J1). (B) HT1080 or UBE2G2 KO cells were transfected with INSIG-1-MYC and degradation assessed by CHX chase. […] (D) Cells were transfected with NHK-MYC and HA-ubiquitin and ubiquitination of NHK assessed following proteasome inhibition and IP (right panel). Left panel is 10% of total cell lysate used for IP, indicating no discernable change in total ubiquitination. (E) Levels of endogenous HRD1 were monitored by CHX chase in the indicated cell types. (F) Ubiquitination of endogenous HRD1 was assessed following IP with HRD1 antiserum. Arrow in upper panel indicates migration of unmodified HRD1. Control immunoprecipitates using rabbit serum are shown for comparison. […]
(§2) In vitro translated ^35S methionine-labeled E2s were generated using the E. coli T7-S30 Extract System (Promega) and excess ^35S methionine was removed by desalting twice with Zeba Spin Desalting Columns (Thermo Scientific). GST fusion proteins were quantified by Coomassie blue staining. […] Binding was quantified using ImageQuant Software.

UBE2J1/UBC6e = test: GST pulldown of in vitro translated 35S-UBE2J1; format: binding; details: GST-AUP1 aa 292 to 410, overnight 4°C, pH 7.4
Protocol: as §1, §2

UBE2D3/UBCH5C = test: GST pulldown of in vitro translated 35S-UBE2D3; format: binding; details: GST-AUP1 aa 292 to 410, overnight 4°C, pH 7.4
Protocol: as §1, §2

UBE2G1 = test: GST pulldown of in vitro translated 35S-UBE2G1; format: binding; details: GST-AUP1 aa 292 to 410, overnight 4°C, pH 7.4
Protocol: as §1, §2

UBE2G2 = biological target: T1, UBE2G2 (Homo sapiens, UniProt P60604); test: GST pulldown of in vitro translated 35S-UBE2G2; format: binding; details: GST-AUP1 aa 292 to 410 on glutathione beads, ~3 pmol GST fusion, ~0.2 pmol E2, overnight 4°C, pH 7.4
T1 construct: made in house
T1 sequence (P60604 1-165): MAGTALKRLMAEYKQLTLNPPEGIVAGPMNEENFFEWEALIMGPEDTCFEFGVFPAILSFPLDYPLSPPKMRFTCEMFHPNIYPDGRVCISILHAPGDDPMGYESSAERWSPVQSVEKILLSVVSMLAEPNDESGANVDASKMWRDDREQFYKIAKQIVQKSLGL
Protocol: Fig 3 The AUP1–UBE2G2 interaction is required for ERAD. (A) Equimolar amounts of GST-AUP1 (aa 292 to 410) or GST were immobilized on glutathione beads and binding to the indicated in vitro translated ^35S-labeled E2s was assessed. Left panel is 5% of input used for binding. E2s are referred to by their unique alpha-numeric designation (e.g., UBE2G1 and UBE2J1). (B) HT1080 or UBE2G2 KO cells were transfected with INSIG-1-MYC and degradation assessed by CHX chase. […] (D) Cells were transfected with NHK-MYC and HA-ubiquitin and ubiquitination of NHK assessed following proteasome inhibition and IP (right panel). Left panel is 10% of total cell lysate used for IP, indicating no discernable change in total ubiquitination. (E) Levels of endogenous HRD1 were monitored by CHX chase in the indicated cell types. (F) Ubiquitination of endogenous HRD1 was assessed following IP with HRD1 antiserum. Arrow in upper panel indicates migration of unmodified HRD1. Control immunoprecipitates using rabbit serum are shown for comparison. The data underlying this figure can be found in S1 Data. aa, amino acid; AUP1, ancient ubiquitous protein 1; CHX, cycloheximide; ERAD, endoplasmic reticulum–associated degradation; IP, immunoprecipitation; KO, knockout; WT, wild type.
Fig 6 Disruption of UBE2G2:G2BR^AUP1 interaction abrogates AUP1 function in cells. (A) GST or indicated GST-AUP1 fusions (aa 292 to 410, expression shown in Coomassie-stained gel) were immobilized on glutathione beads and binding to ^35S-UBE2G2 was assessed as in Fig 3A. Mutations include 2A (R382A/Q383A), 2E (R382E/Q383E), and 5E (R382E/Q383E/K390E/R398E/R400E). (B) AUP1 KO cells were transfected with NHK-HA and forms of full-length AUP1-FLAG with the indicated point mutations from (A) and NHK degradation assessed by CHX chase. (C) Binding assay performed as in (A) with AUP1 mutants predicted to disrupt hydrophobic interactions with UBE2G2. (D) Cellular assay performed as in (B) with AUP1-FLAG mutants that disrupt interactions with UBE2G2 in vitro in (C). The data underlying this figure can be found in S1 Data. aa, amino acid; AUP1, ancient ubiquitous protein 1; CHX, cycloheximide; G2BR, UBE2G2 Binding Region; KO, knockout; WT, wild type.
In vitro translated ^35S methionine-labeled E2s were generated using the E. coli T7-S30 Extract System (Promega) and excess ^35S methionine was removed by desalting twice with Zeba Spin Desalting Columns (Thermo Scientific). GST fusion proteins were quantified by Coomassie blue staining. Moreover, 0.1 μg of GST fusion protein (approximately 3 pmol) was prebound to GS 4B (GE Healthcare) and then incubated with approximately 10^5 cpm of ^35S methionine-labeled E2 (approximately 0.2 pmol) in 200 μl Binding Buffer (25 mM Tris-HCl, pH 7.4, 50 mM NaCl, 5 mM DTT, 0.5% IGEPAL CA-630) overnight at 4°C. Beads were extensively washed in Binding Buffer, resolved on Bis/Tris polyacrylamide gels under reducing conditions, dried and visualized on a Typhoon FLA 7000 (GE Healthcare). Binding was quantified using ImageQuant Software.

purified UBE2G2 = biological target: T2, purified UBE2G2 (UniProt P60604 1-165, ^15N-labeled for NMR); test: NMR titration; ^1H-^15N HSQC of ^15N-labeled UBE2G2 at 150 μM, alone or bound to G2BR peptide, titrated with gp78 RING 0 to 450 μM; chemical shift perturbations fitted; 50 mM Tris-Cl pH 7.0, 0.5 mM TCEP, 100 μM zinc sulfate; details: both partners purified
T2 construct: UBE2G2, purified recombinant protein used for ITC, FP, MST and NMR; also called apo-UBE2G2; ^15N-labeled UBE2G2
T2 sequence (looked up): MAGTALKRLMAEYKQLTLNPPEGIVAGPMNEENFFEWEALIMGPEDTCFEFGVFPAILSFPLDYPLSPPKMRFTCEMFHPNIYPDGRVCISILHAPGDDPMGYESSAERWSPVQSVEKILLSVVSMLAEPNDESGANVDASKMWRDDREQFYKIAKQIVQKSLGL

UBE2G2:G2BR^AUP1 complex = biological target: T3, UBE2G2:G2BR^AUP1 complex (UniProt P60604 1-165, ^15N-labeled); test: as above; details: both partners purified
T3 construct: UBE2G2, as m15; AUP1 G2BR, residues 378-404, as m16; Complex formed before titration with the gp78 RING; also called G2BR^AUP1:UBE2G2
T3 sequence 1: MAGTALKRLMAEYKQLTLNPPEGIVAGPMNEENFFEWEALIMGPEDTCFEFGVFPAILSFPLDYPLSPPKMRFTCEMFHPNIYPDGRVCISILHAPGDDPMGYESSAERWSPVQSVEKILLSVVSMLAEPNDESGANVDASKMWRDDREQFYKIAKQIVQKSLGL
T3 sequence 2: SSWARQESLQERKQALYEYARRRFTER

UBE2G2:G2BR^gp78 complex = biological target: T4, UBE2G2:G2BR^gp78 complex (UniProt P60604 1-165, ^15N-labeled); test: as above; details: both partners purified
T4 construct: UBE2G2, as m15; N-terminal Trp residue added for peptide quantification, as m17; gp78 G2BR, residues 574-600, as m17; Complex formed before titration with the gp78 RING; also called G2BR^gp78:UBE2G2
T4 sequence 1: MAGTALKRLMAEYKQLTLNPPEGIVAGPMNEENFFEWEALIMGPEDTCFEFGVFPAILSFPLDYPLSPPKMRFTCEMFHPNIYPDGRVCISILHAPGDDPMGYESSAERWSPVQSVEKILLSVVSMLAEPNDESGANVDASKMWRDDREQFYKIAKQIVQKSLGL
T4 sequence 2: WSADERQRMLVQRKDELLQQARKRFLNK

B1: GST fusion of AUP1: GST fusion of AUP1 that includes the G2BR (protein)
chain: SPDVQLATLAQRVKEVLPHVPLGVIQRDLAKTGCVDLTITNLLEGAVAFMPEDITKGTQSLPTASASKFPSSGPVTPQPTALTFAKSSWARQESLQERKQALYEYARRRFTERRAQEAD
modifications: left off: GST, end not stated, kept
notes: GST fusion of AUP1 that includes the G2BR
With B1 the “binding to UBE2D2” value (UBE2D2/UBCH5B) was “no discernable binding”, the “binding to UBE2J1” value (UBE2J1/UBC6e) was “failed to show detectable binding” and the “binding to UBE2D3” value (UBE2D3/UBCH5C) was “no discernable binding”. For the same molecule, the “binding to UBE2G1” value (UBE2G1) was “not UBE2G1” and the “binding to UBE2G2” value (UBE2G2) was “bound UBE2G2”.

B2: gp78 RING domain (domain or fragment, UniProt Q9UKV5 313-393, looked up)
chain: KNYLRVVGNMEARFAVATPEELAVNNDDCAICWDSMQAARKLPCGHLFHNSCLRSWLEQDTSCPTCRMSLNIADNNRVREE
notes: gp78 (aka AMFR or RNF45), RING domain; the limits 313-393 are those of the only gp78-RING construct that the methods name; also called gp78-RING construct (aa 313 to 393)
B2 showed a Kd (purified UBE2G2) of 207 ± 6.4 µM, a Kd (UBE2G2:G2BR^AUP1 complex) of 22.5 µM and a Kd (UBE2G2:G2BR^gp78 complex) of 20.3 µM.
